The values below come from article PMC3478719.

In this experiment the target is SIF binding receptor from human spermatozoa (human (endogenous in spermatozoa)). Briefly: ITC; microreaction calorimeter, titration mode; 1.5 mL receptor (200 μg mL^-1) in the vial, ligand (500 μg mL^-1) in a 250 μL syringe; PBS. On the technique in general: In ITC the heat of successive injections is recorded.

Turning to “Sperm immobilization factor (SIF) from Staphylococcus aureus (natural protein)”, the Ka turned out to be 1350 M⁻¹; the dH was -2.84 kcal/mol; the heat released (ligand 7.5 × 10^-4 μM, receptor 4.8 × 10^-3 μM) came to 9.7 mJ; the heat released (ligand 15.0 × 10^-4 μM, receptor 4.8 × 10^-3 μM) came out at 9 mJ. The heat released (ligand 22.5 × 10^-4 μM, receptor 4.8 × 10^-3 μM) came to 8.6 mJ; the heat released (ligand 30.0 × 10^-4 μM, receptor 4.8 × 10^-3 μM) was 5.6 mJ; the heat released (ligand 37.5 × 10^-4 μM, receptor 4.8 × 10^-3 μM) was 2.3 mJ; the heat released (ligand 45.0 × 10^-4 μM, receptor 4.8 × 10^-3 μM) was found to be 2.1 mJ. In addition, the heat released (ligand 52.5 × 10^-4 μM, receptor 4.8 × 10^-3 μM) was determined as 2 mJ.
